Source: US20250011363A1, “OPTIMIZED SHORTENED PEPTIDE THAT BINDS TO ACETYLCHOLINE RECEPTOR, AND USE THEREOF” (SKINMED CO., LTD., priority 2021, published 2025)

Molecular target: acetylcholine receptor
Assay: SPR, receptor on CM5 chip, peptide 10 µM

| Binder | Binding affinity (RU) |
| --- | --- |
| RRSLSR [6mer-1-115] | 133 |
| KRVIYR [6mer-1-127] | 147 |
| KRRYTK [6mer-1-121] | 148 |
| RKVRCK [6mer-1-116] | 139 |
| RKQVLR [6mer-1-130] | 142 |
| KRVQQK [6mer-1-124] | 137 |
| RRRYSR [6mer-1-120] | 124 |
| KKSIYR [6mer-1-134] | 128 |
| KKWIQR [6mer-1-126] | 148 |
| RRRQSK [6mer-1-129] | 121 |
| KRLQTR [6mer-1-119] | 133 |
| KRGIQR [6mer-1-131] | 142 |
| KRRLCR [6mer-1-125] | 135 |
| RRGVQK [6mer-1-123] | 148 |
| KKLIRK [6mer-1-122] | 139 |
| RKQFYR [6mer-1-128] | 126 |
| KRLFTR [6mer-1-117] | 142 |
| RKLQLR [6mer-1-118] | 127 |
| RKRFLR [6mer-1-133] | 154 |
| RRQVYR [6mer-1-132] | 153 |
| RRQITK [6mer-1-114] | 153 |

More lines, now with the values ahead:

| Binding affinity (RU) | Binder |
| --- | --- |
| 154 | KKVLSK [6mer-1-473] |
| 142 | KRQRCK [6mer-1-472] |
| 153 | RRLYRR [6mer-1-468] |
| 148 | KKWVYR [6mer-1-470] |
| 148 | RKLQTK [6mer-1-475] |
| 154 | KRRRQK [6mer-1-476] |
| 139 | KKLIYR [6mer-1-469] |
| 123 | KRQVSR [6mer-1-135] |
| 121 | KRLFSK [6mer-1-474] |
| 123 | KKWRCK [6mer-1-471] |
